Numbering of substitutions follows the chain as printed.
T1: human BASIGIN recombinant protein (human, UniProt P35613-2 22-205, limits assumed)
T1 construct: also called hBASIGIN
T1 sequence (looked up): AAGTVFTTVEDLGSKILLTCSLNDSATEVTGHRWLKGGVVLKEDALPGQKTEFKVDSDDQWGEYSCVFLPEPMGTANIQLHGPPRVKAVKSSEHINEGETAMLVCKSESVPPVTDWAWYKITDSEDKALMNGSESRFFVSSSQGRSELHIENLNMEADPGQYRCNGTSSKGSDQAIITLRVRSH

B1: humanized antibody HP6H8-3 (antibody, V domains shown)
VH: EVQLVESGGGLVQPGGSLKLSCAASGFTFSNFWMNWVRQAPGKGLEWVAEIRLKSNNYATHYAESVKGRFTISRDDSKNTLYLQMNSLKTEDTAVYYCTSYDYEYWGQGTLVTVSA
VL: DIQMTQSPSSLSASVGDRVTLTCKASENVGTYVSWYQQKPGQAPKLLIYGASNRYTGVPSRFTGSGSGTDFTLTISSLQPDDFATYYCGQSYSYPFTFGSGTKLEIK
notes: Derived from scFv clone 11242; also called WBP229-203; pCI-WBP229-203L/H
B2: humanized antibody HP6H8-2 (antibody, V domains shown)
VH: B1 VH with K89R
VL: B1 VL with S9A, L21I, T22S, A43T, T63S
notes: Derived from scFv clone 11245; also called WBP229-204; pCI-WBP229-204L/H
B3: humanized antibody HP6H8-1 (antibody, V domains shown)
VH: B1 VH with K19R, A49S
VL: B1 VL with S10T, T22S, Q42K, D81E
notes: Derived from scFv clone 11305; also called WBP229-205; pCI-WBP229-205L/H
B4: mouse monoclonal antibody HAb18GC2 (6H8) (antibody, V domains shown)
VH: EVKLEESGGGLVQPGGSMKLSCVASGFTFSNFWMNWVRQSPEKGLEWVAEIRLKSNNYATHYAESVKGRFTISRDDSKSSVYLQMNNLRTEDTGIYYCTSYDYEYWGQGTLVTVSA
VL: NIVMTQSPKSMSMSVGERVTLSCKASENVGTYVSWYQQKPEQSPKLLIYGASNRYTGVPDRFTGSGSATDFTLTISSVQAEDLADYHCGQSYSYPFTFGSGTKLEIK
notes: Mouse monoclonal from hybridoma CCTCC-C200636; also called mouse 6H8; Mouse monoclonal 6H8
B5: chimeric antibody c6H8 (antibody, V domains shown)
VH: B4 VH
VL: B4 VL
notes: Mouse 6H8 variable regions fused to a human constant region of IgG1 isotype; also called chimeric 6H8

target: T1, human BASIGIN recombinant protein; experiment: SPR (ProteOn XPR36), human BASIGIN amine-coupled on chip, antibody as analyte
Experimental: The affinity of the antibody was measured with ProteOn XPR36 (Bio-Rad). The GLC chip (Bio-Rad, 1765011) was activated with 0.04 M EDC+0.01 M sulfo-NHS (Bio-Rad). The human BASIGIN was diluted to […] with 10 mM NaAc (pH 4.5) and then injected onto the chip at the rate of 30 μl/min to couple the antigen with the activated chip via amino groups. Finally, the chip were inactivated with 1 M ethanolamine-HCl (Bio-Rad), and when the chip was rotated for 90 degrees, it was washed with a buffer (PBS/0.005% Tween 20) until the baseline was stable. Five cell culture supernatants containing scFv antibody and one negative control were injected on six horizontal channels, respectively, at feeding rate of 30 μl/min. The time for binding was set as 60 s and the time for dissociation was set as 900 s. The data were analyzed using the Kinetic-Langmuir model.
The binding affinity of the three humanized antibodies, the mouse antibody 6H8 and the chimeric antibody c6H8 were also determined by SPR (for detailed steps, please refer to the description in example 6), data were shown in Table 2.

Kd	koff	kon	Binder
0.102 nM	5.44e-05 s⁻¹	531000 M⁻¹ s⁻¹	B1
0.0583 nM	3.6e-05 s⁻¹	618000 M⁻¹ s⁻¹	B2
0.0905 nM	4.96e-05 s⁻¹	548000 M⁻¹ s⁻¹	B3
1.17 nM	6.64e-05 s⁻¹	56600 M⁻¹ s⁻¹	B4
0.452 nM	5.81e-05 s⁻¹	128000 M⁻¹ s⁻¹	B5

target: T1, human BASIGIN recombinant protein; experiment: ELISA, coated human BASIGIN recombinant protein, HRP-labelled goat anti-human light chain constant region secondary antibody, A450
Experimental: 200 ng of human BASIGIN recombinant protein was coated in an ELISA plate and allowed to stand overnight at 4° C. The coated plate was blocked with 0.1% BSA at room temperature for 1 hour. Three antibodies obtained in example 8 along with the parental mouse monoclonal 6H8 and chimeric antibody c6H8 were each prepared into 5 solutions with gradient concentrations of 10, 100, 1,000, 10,000 and 100,000 ng/ml. 100 μl of each solution was added into individual wells and the plate was allowed to stand at room temperature for 1 hour. 100 μl of 1:4,000 diluted horseradish peroxidase-labeled goat anti-human light chain constant region as secondary antibody (Millipore) was added and allowed to stand at room temperature for 1 hour. The plates were then washed with 200 μl of 1×PBS buffer for 3 times, TMB substrate solution (50 μl/well) was added to each well to react for 10 min, and the stopping solution (2 M HCl, 50 μl/well) was added to terminate the reaction. The absorbance at 450 nm was read in an ELISA plate reader.

EC50 (read off the curve)	Binder
~0.5 mg/L	B4

— US20190270809A1 (FOURTH MILITARY MEDICAL UNIVERSITY, published 2019)
